The record followed here is PMC8277605, “Binding of gephyrin to microtubules is regulated by its phosphorylation at Ser270” (Histochemistry and Cell Biology, 2021).

Data set [1] deals with microtubules polymerized from endogenous tubulin of HEK293T cell extracts (human (endogenous in HEK293T)) (UniProt P68363). Put plainly: co-sedimentation; MT co-sedimentation assay with HEK293T lysates only (gephyrin alone, gephyrin or mutant gephyrin with CbII(-SH3)); endogenous cellular tubulin polymerized with 2 mM GTP and 20 uM paclitaxel in MES buffer; 100,000 x g; immunoblot with mAb7a, R-20, DM1alpha; band ratios standardized to the tubulin signal.
microtubules polymerized from endogenous tubulin of HEK293T cell extracts (human (endogenous in HEK293T)), sequence (P68363 whole entry, chain 1 of 2): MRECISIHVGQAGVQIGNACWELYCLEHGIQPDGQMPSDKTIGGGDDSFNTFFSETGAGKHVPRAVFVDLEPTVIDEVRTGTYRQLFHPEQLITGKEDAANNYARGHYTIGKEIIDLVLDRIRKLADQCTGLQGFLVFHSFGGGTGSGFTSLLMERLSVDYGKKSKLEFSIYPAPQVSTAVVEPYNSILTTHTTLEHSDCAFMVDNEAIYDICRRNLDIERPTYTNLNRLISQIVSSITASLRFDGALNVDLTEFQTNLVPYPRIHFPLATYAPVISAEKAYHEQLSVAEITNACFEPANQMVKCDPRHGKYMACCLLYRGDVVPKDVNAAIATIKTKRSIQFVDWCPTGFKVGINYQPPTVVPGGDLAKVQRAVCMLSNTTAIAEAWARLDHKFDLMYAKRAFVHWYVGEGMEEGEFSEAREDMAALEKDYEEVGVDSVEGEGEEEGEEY
microtubules polymerized from endogenous tubulin of HEK293T cell extracts (human (endogenous in HEK293T)), sequence (P07437 whole entry, chain 2 of 2, further chain): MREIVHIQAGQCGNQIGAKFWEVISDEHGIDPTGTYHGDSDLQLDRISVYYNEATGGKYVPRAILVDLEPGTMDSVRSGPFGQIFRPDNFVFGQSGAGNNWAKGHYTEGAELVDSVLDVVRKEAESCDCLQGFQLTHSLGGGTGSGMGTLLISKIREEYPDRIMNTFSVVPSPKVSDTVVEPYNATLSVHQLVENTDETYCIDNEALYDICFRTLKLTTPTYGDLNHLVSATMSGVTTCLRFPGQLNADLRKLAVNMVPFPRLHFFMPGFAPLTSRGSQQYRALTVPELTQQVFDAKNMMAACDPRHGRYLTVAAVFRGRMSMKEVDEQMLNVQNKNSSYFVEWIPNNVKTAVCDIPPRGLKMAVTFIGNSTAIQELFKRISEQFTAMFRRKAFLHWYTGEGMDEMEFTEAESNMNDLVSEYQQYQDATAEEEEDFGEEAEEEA

Data set [2] concerns the molecule itself. Put plainly: native gel or EMSA; blue-native PAGE of 100 ug cytosol per lane, second dimension 12.5% SDS-PAGE, Western blot for gephyrin; NativeMARK standard.

As to “recombinant gephyrin (P1) phosphorylated at Ser270 (detected by mAb7a) (natural protein)”, the ratio of the mAb7a signal in the insoluble to soluble fraction in data set [1] was found to be 0.17.

Take “recombinant gephyrin (P1), N-terminally 6-histidine-tagged (natural protein)”: in data set [1], the ratio of the mAb7a signal in the insoluble to soluble fraction was 1.5.

B1: gephyrin from liver tissue (natural protein, UniProt Q03555 1-768, looked up)
chain: MATEGMILTNHDHQIRVGVLTVSDSCFRNLAEDRSGINLKDLVQDPSLLGGTISAYKIVPDEIEEIKETLIDWCDEKELNLILTTGGTGFAPRDVTPEKFPTFPFCGLQKGATKEVIEREAPGMALAMLMGSLNVTPLGMLSRPVCGIRGKTLIINLPGSKKGSQECFQFILPALPHAIDLLRDAIVKVKEVHDELEDLPSPPPPLSPPPTTSPHKQTEDKGVQCEEEEEEKKDSGVASTEDSSSSHITAAALAAKIPDSIISRGVQVLPRDTASLSTTPSESPRAQATSRLSTASCPTPKQIRRPDESKGVASRVGSLKVQSRCSSKENILRASHSAVDITKVARRHRMSPFPLTSMDKAFITVLEMTPVLGTEIINYRDGMGRVLAQDVYAKDNLPPFPASVKDGYAVRAADGPGDRFIIGESQAGEQPTQTVMPGQVMRVTTGAPIPCGADAVVQVEDTELIRESDDGTEELEVRILVQARPGQDIRPIGHDIKRGECVLAKGTHMGPSEIGLLATVGVTEVEVNKFPVVAVMSTGNELLNPEDDLLPGKIRDSNRSTLLATIQEHGYPTINLGIVGDNPDDLLNALNEGISRADVIITSGGVSMGEKDYLKQVLDIDLHAQIHFGRVFMKPGLPTTFATLDIDGVRKIIFALPGNPVSAVVTCNLFVVPALRKMQGILDPRPTIIKARLSCDVKLDPRPEYHRCILTWHHQEPLPWAQSTGNQMSSRLMSMRSANGLLMLPPKTEQYVELHKGEVVDVMVIGRL
notes: gephyrin endogenous in liver tissue; source: endogenous, liver protein extract
In the case of B1, the “stoichiometry N” value in data set [2] was found to be 6.

B2: gephyrin, endogenous in HEK293T cells (natural protein, human (endogenous in HEK293T), UniProt Q9NQX3 1-736, looked up)
chain: MATEGMILTNHDHQIRVGVLTVSDSCFRNLAEDRSGINLKDLVQDPSLLGGTISAYKIVPDEIEEIKETLIDWCDEKELNLILTTGGTGFAPRDVTPEATKEVIEREAPGMALAMLMGSLNVTPLGMLSRPVCGIRGKTLIINLPGSKKGSQECFQFILPALPHAIDLLRDAIVKVKEVHDELEDLPSPPPPLSPPPTTSPHKQTEDKGVQCEEEEEEKKDSGVASTEDSSSSHITAAAIAAKIPDSIISRGVQVLPRDTASLSTTPSESPRAQATSRLSTASCPTPKVQSRCSSKENILRASHSAVDITKVARRHRMSPFPLTSMDKAFITVLEMTPVLGTEIINYRDGMGRVLAQDVYAKDNLPPFPASVKDGYAVRAADGPGDRFIIGESQAGEQPTQTVMPGQVMRVTTGAPIPCGADAVVQVEDTELIRESDDGTEELEVRILVQARPGQDIRPIGHDIKRGECVLAKGTHMGPSEIGLLATVGVTEVEVNKFPVVAVMSTGNELLNPEDDLLPGKIRDSNRSTLLATIQEHGYPTINLGIVGDNPDDLLNALNEGISRADVIITSGGVSMGEKDYLKQVLDIDLHAQIHFGRVFMKPGLPTTFATLDIDGVRKIIFALPGNPVSAVVTCNLFVVPALRKMQGILDPRPTIIKARLSCDVKLDPRPEYHRCILTWHHQEPLPWAQSTGNQMSSRLMSMRSANGLLMLPPKTEQYVELHKGEVVDVMVIGRL
notes: human gephyrin, endogenous in HEK293T cells; also called endogenous gephyrin; source: endogenous, HEK293T protein extract (cytosol)
As for B2, the “stoichiometry N” value in data set [2] is 6.

B3: gephyrin, endogenous in U2OS cells (natural protein, human (endogenous in U2OS), UniProt Q9NQX3 1-736, looked up)
chain: MATEGMILTNHDHQIRVGVLTVSDSCFRNLAEDRSGINLKDLVQDPSLLGGTISAYKIVPDEIEEIKETLIDWCDEKELNLILTTGGTGFAPRDVTPEATKEVIEREAPGMALAMLMGSLNVTPLGMLSRPVCGIRGKTLIINLPGSKKGSQECFQFILPALPHAIDLLRDAIVKVKEVHDELEDLPSPPPPLSPPPTTSPHKQTEDKGVQCEEEEEEKKDSGVASTEDSSSSHITAAAIAAKIPDSIISRGVQVLPRDTASLSTTPSESPRAQATSRLSTASCPTPKVQSRCSSKENILRASHSAVDITKVARRHRMSPFPLTSMDKAFITVLEMTPVLGTEIINYRDGMGRVLAQDVYAKDNLPPFPASVKDGYAVRAADGPGDRFIIGESQAGEQPTQTVMPGQVMRVTTGAPIPCGADAVVQVEDTELIRESDDGTEELEVRILVQARPGQDIRPIGHDIKRGECVLAKGTHMGPSEIGLLATVGVTEVEVNKFPVVAVMSTGNELLNPEDDLLPGKIRDSNRSTLLATIQEHGYPTINLGIVGDNPDDLLNALNEGISRADVIITSGGVSMGEKDYLKQVLDIDLHAQIHFGRVFMKPGLPTTFATLDIDGVRKIIFALPGNPVSAVVTCNLFVVPALRKMQGILDPRPTIIKARLSCDVKLDPRPEYHRCILTWHHQEPLPWAQSTGNQMSSRLMSMRSANGLLMLPPKTEQYVELHKGEVVDVMVIGRL
notes: human gephyrin, endogenous in U2OS osteosarcoma cells; also called endogenous gephyrin; source: endogenous, U2OS protein extract (cytosol)
Take B3: in data set [2], the “stoichiometry N” value is 6.
